Read-outs that look alike come from different tables or passages of the source.
What was measured:
[1] = target: T1, vesicular stomatitis virus nucleoprotein lacking its 21 N-terminal residues (N[change]), MBP tag removed (vesicular stomatitis virus, UniProt P03521 22-422); test: SEC-MALS; conditions: both partners purified
SEC = target: the molecule itself; test: SEC
[2] = target: P60: the first 60 amino acids of VSV phosphoprotein P, a two-amino acid linker and a C-terminal His6-tag (vesicular stomatitis virus, UniProt P03520 1-60); test: NMR titration; conditions: both partners purified
[3] = target: T1, vesicular stomatitis virus …

B1: full-length VSV phosphoprotein P dimer (natural protein)
chain: MDNLTKVREYLKSYSRLDQAVGEIDEIEAQRAEKSNYELFQEDGVEEHTKPSYFQAADDSDTESEPEIEDNQGLYAQDPEAEQVEGFIQGPLDDYADEEVDVVFTSDWKPPELESDEHGKTLRLTSPEGLSGEQKSQWLSTIKAVVQSAKYWNLAECTFEASGEGVIMKERQITPDVYKVTPVMNTHPSQSEAVSDVWSLSKTSMTFQPKKASLQPLTISLDELFSSRGEFISVGGDGRMSHKEAILLGLRYKKLYNQARVKYSL
With B1 the “stoichiometry N” value [1] was 2 P molecules per NΔ21.

B2: N[change] in fusion with an N-terminal maltose binding protein tag (MBP-N[change]) (domain or fragment)
chain: EDPVEYPADYFRKSKEIPLYINTTKSLSDLRGYVYQGLKSGNVSIIHVNSYLYGALKDIRGKLDKDWSSFGINIGKAGDTIGIFDLVSLKALDGVLPDGVSDASRTSADDKWLPLYLLGLYRVGRTQMPEYRKKLMDGLTNQCKMINEQFEPLVPEGRDIFDVWGNDSNYTKIVAAVDMFFHMFKKHECASFRYGTIVSRFKDCAALATFGHLCKITGMSTEDVTTWILNREVADEMVQMMLPGQEIDKADSYMPYLIDFGLSSKSPYSSVKNPAFHFWGQLTALLLRSTRARNARQPDDIEYTSLTTAGLLYAYAVGSSADLAQQFCVGDNKYTPDDSTGGLTTNAPPQGRDVVEWLGWFEDQNRKPTPDMMQYAKRAVMSLQGLREKTIGKYAKSEFDK
B2: binds (SEC); binds [2].

In the case of VREYLKSYSRLDQAVGEIDEIEAQRAEKSNYELF [shorter peptide encompassing residues 7 to 40 of P], the “stoichiometry N” value [3] is reported as 1.

Source: publication PMC3178552 (PLoS Pathogens, 2011)
